Blank lines part the entries; values can stand above or below the molecule they belong to.
How the values were obtained:
[1] = target: murine FasL of anti-CD3-stimulated mouse T cell hybridoma cells (LTT cells) (mouse) (UniProt P41047)
[2] = target: murine FasL of anti-CD3-stimulated mouse T cell hybridoma cells (LTT cells) (mouse) (UniProt P41047); remark: listed apart in the source
[3] = target: FasL expressed by anti-CD3-activated Jurkat cells
[4] = target: soluble Fas L (recombinant FasL)
[5] = target: FasL expressed by anti-CD3-activated Jurkat cells; remark: listed apart in the source
[6] = target: hFasLigand (Flag-tagged) (human) (UniProt P48023); test: competition ELISA: mrecFas 100 ng adsorbed, hFasLigand-Flag 30 ng, FLINT 1 ng; signal is FasL bound to Fas
[7] = target: hFasLigand (Flag-tagged) (human) (UniProt P48023); test: competition ELISA: mrecFas 100 ng adsorbed, hFasLigand-Flag 30 ng, FLINT 5 ng; signal is FasL bound to Fas
[8] = target: hFasLigand (Flag-tagged) (human) (UniProt P48023); test: competition ELISA: mrecFas 100 ng adsorbed, hFasLigand-Flag 30 ng, FLINT 10 ng; signal is FasL bound to Fas
[9] = target: hFasLigand (Flag-tagged) (human) (UniProt P48023); test: competition ELISA: mrecFas 100 ng adsorbed, hFasLigand-Flag 30 ng, FLINT 50 ng; signal is FasL bound to Fas
[10] = target: hFasLigand (Flag-tagged) (human) (UniProt P48023); test: competition ELISA: mrecFas 100 ng adsorbed, hFasLigand-Flag 30 ng, FLINT 100 ng; signal is FasL bound to Fas
[11] = target: hFasLigand (Flag-tagged) (human) (UniProt P48023); test: competition ELISA: mrecFas 100 ng adsorbed, hFasLigand-Flag 30 ng, FLINT 500 ng; signal is FasL bound to Fas
[12] = mouse, in vivo
Description: These animals are also useful in further delineating useful treatment protocols for the conditions set out above. Transgene construction. […] The 5' primer, [NT], a BglII restriction site and the 3' primer, [NT], contained an SpeI restriction enzyme site. These were used to amplify the entire FLINT and FLAG coding region. The amplified 1.1 kb fragment was ligated into the multiple cloning site of plasmid […]2 generating plasmid […] (6.7 kb). See Fox et al, Eur. J. Pharmacol. 308:195 (1996). The FLINT gene fragment was excised from […] by BglII and SpeI digestion and gel-purified. This fragment then was blunted with Klenow enzyme and ligated into the Klenow-blunted MluI site of plasmid pLIV.7, provided by John Taylor of the J. David Gladstone Institutes. See Fan et al., Proc. Nat'l Acad. Sci. 91:8724 (1994). Resultant plasmid […] also contains the apo E gene promoter/5' flanking region and an hepatic enhancer sequences called the “hepatic control region” (HCR). […] Broad tissue expression was detected in line 6494 progeny by Northern blot, RT-PCR (TaqMan), Western blot and immunohistochemical analysis and was highest in the liver and kidney. High levels of FLINT protein were detected in the circulation of line 6494 mice by ELISA assay; founder level=490 ng/ml; progeny levels ranged from 285-1360 ng/ml (n=6). No endogenous FLINT was detected by these analyses.

mrecFas = test: Baseline Fas-FasLigand interaction ELISA; type: binding; settings: mrecFas 100 ng adsorbed
Protocol: First a baseline experiment was done for the Fas-FasLigand interaction in vitro. Unless otherwise indicated, all washing steps use TBST (Tris Buffer Saline with Tween 20 from SIGMA) and were done 3 to 6 times.
mrecFas (100 ng) was adsorbed on to ELISA plate. Then the plate was is blocked by TBST plus 0.1% Gelatine. […] After washing the plate 6 times, anti-mouse-Abs-HRP (3000 dilution, Bio-Rad) was added to the wells. After washings three times, visualization enzymatic reaction using ABTS as a substrate was performed. Unless otherwise noted, an ELISA reader commercialized by Molecular Devices Corp. (Menlo Park, Calif.) was used.

Jurkat cells = test: Recombinant FasL induced Jurkat cell apoptosis (Annexin V/PI, FACS); type: cell-based; settings: Jurkat + inducer alone 200 ng/ml, overnight
Protocol: One milliliter of 1×10^6 cell/ml was added into each well of 24 well tissue culture plate and treated with following reagents: soluble Fas L (200 ng), Fas L plus 1 ug mFLINT, Fas L plus 1 ug OPG2-Fc, Trail (200 ng), Trail plus 1 ug mFLINT. Cells were incubated overnight at 37° C. and then stained with Annexin V and PI.

bone marrow cells = test: Viable cell count of bone marrow cells from 5-FU treated mice after cytokine expansion; type: cell-based, mouse; settings: FIG. 10; 3 days with SCF and IL-6; mFLINT 1 ug/ml, anti-FasL 1 ug/ml, FasL 0.15 ug/ml; control 3,300
Description: Following a 3 day in vitro expansion period with cytokines, viable cells are counted and used to set up a CFU assay. If mFLINT or anti-FasL antibody protects progenitor cells from apoptosis, one would expect a greater number of colonies in these groups for the CFU assay. […] The values were: control cells: 3,300; FasL-treated cells: 3,000; anti-FasL-treated cells: 4,200; mFLINT-treated cells: 4,900.

Sequence of murine FasL of anti-CD3-stimulated mouse T cell hybridoma cells (LTT cells) (mouse) (P41047 whole entry): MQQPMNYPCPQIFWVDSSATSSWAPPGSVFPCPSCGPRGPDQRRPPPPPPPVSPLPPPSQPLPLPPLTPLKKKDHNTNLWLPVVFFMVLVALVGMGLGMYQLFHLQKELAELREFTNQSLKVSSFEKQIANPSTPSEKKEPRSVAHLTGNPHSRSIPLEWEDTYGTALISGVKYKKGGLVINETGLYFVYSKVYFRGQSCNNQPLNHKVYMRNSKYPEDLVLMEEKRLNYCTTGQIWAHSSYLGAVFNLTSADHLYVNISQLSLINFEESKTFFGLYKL

B3: FLINT protein: FLINT-FLAG expressed from Apo E promoter/HCR transgene in line 6494 transgenic mice (protein)
chain: VAETPTYPWRDAETGERLVCAQCPPGTFVQRPCRRDSPTTCGPCPPRHYTQFWNYLERCRYCNVLCGEREEEARACHATHNRACRCRTGFFAHAGFCLEHASCPPGAGVIAPGTPSQNTQCQPCPPGTFSASSSSSEQCQPHRNCTALGLALNVPGSSSHDTLCTSCTGFPLSTRVPGAEECERAVIDFVAFQDISIKRLQRLLQALEAPEGWGPTPRAGRAALQLKLRRRLTELLGAQDGALLVRLLQALRVARMPGLERSVRERFLPVH
modifications: glycosylated
notes: FLINT-FLAG expressed from Apo E promoter/HCR transgene in line 6494 transgenic mice
histopathologic findings [12]: No significant histopathologic findings
observable abnormalities [12]: no observable abnormalities

B4: FasL: Fas ligand; hFasLigand (Flag-tagged) in ELISA, soluble Fas L in cell assays (protein)
chain: QLFHLQKELAELRESTSQMHTASSLEKQIGHPSPPPEKKELRKVAHLTGKSNSRSMPLEWEDTYGIVLLSGVKYKKGGLVINETGLYFVYSKVYFRGQSCNNLPLSHKVYMRNSKYPQDLVMMEGKMMSYCTTGQMWARSSYLGAVFNLTSADHLYVNVSELSLVNFEESQTFFGLYKL
OD, 405 nM (mrecFas; FasL 1 ng): .1
OD, 405 nM (mrecFas; FasL 5 ng): .2
OD, 405 nM (mrecFas; FasL 10 ng): .3
OD, 405 nM (mrecFas; FasL 50 ng): .7
OD, 405 nM (mrecFas; FasL 100 ng): 1.2
OD, 405 nM (mrecFas; FasL 500 ng): 1.6
Cell apoptosis (Annexin V and PI, FACS) (Jurkat cells): 67.39
bone marrow cell count (bone marrow cells): 3,000 ×1000

Second part, led by results:

SFas % Annexin V Positive [1]: 56.7%
B1: solubleFas (sFas)(FasFc, mouse) (Fc fusion)
chain: QGTNSISESLKLRRRVRETDKNCSEGLYQGGPFCCQPCQPGKKKVEDCKMNGGTPTCAPCTEGKEYMDKNHYADKCRRCTLCDEEHGLEVETNCTLTQNTKCKCKPDFYCDSPGCEHCVRCASCEHGTLEPCTATSNTNCRKQSPRNR
MTS cytotoxicity assay, absorbance at 490 nm (absorbance at 490 nm) [2]: 1.46

apoptosis of Jurkat cells, positive staining with Annexin V (FACS) [3]: 18.7
apoptosis of Jurkat cells, Annexin V and PI (FACS) [4]: 3.32
apoptosis of Jurkat cells (dose series of mFLINT) [5]: 14.7
OD, 405 nM [6]: 0.36 OD, 405 nM
OD, 405 nM [7]: 0.36 OD, 405 nM
OD, 405 nM [8]: 0.36 OD, 405 nM
OD, 405 nM [9]: 0.28 OD, 405 nM
OD, 405 nM [10]: 0.18 OD, 405 nM
OD, 405 nM [11]: 0.06 OD, 405 nM
B2: mFLINT (mature human FLINT, non-Flagged, made according to Examples 8 and 9) (receptor)
chain: B3 chain
modifications: glycosylated

From patent US20040167074A1, “Therapeutic applications of mFLINT polypeptides” (priority 1998, published 2004)
